In PMC4282956:
Like-named read-outs stand apart in the source and are kept apart here.

Assays:
Test in all cases: SPR
[1] = biological target: HLA-B*08:01.N80I.R82L.G83R/FLR (human | not stated | EBV)
[2] = biological target: HLA-B*08:01.R82L/FLR (human | not stated | EBV)
[3] = biological target: HLA-B*08:01.N80I.R82L.G83R/FLR (human | not stated | EBV); remark: listed apart in the source

Substance: Soluble KIR3DL1*001 (from UniProt P43629 22-340) (receptor)
- Kd [1]: 40.1 µM
- Kd [2]: > 300 µM
- Kd [3]: 41.9 µM
